Test results as given in patent publication US20230257470A1 (published 2023).

T1: human FcγRIIa(R) (human, UniProt P12318 36-217)
T1 construct: also called FcgRIIaR; FcγRIIa type R
T1 chain: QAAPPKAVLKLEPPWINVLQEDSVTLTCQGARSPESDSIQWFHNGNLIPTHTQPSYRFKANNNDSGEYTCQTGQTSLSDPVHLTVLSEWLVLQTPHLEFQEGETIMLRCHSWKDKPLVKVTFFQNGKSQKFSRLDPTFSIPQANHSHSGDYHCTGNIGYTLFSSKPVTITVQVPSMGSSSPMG

T2: human FcγRIIa(H) (human, UniProt P12318 36-217)
T2 construct: also called FcgRIIaH; FcγRIIa type H
T2 sequence: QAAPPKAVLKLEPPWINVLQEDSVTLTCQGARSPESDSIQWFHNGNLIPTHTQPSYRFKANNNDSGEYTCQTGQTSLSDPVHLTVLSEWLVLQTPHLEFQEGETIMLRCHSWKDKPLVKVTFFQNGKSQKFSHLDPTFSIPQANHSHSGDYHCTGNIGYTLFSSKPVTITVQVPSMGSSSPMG

T3: human FcγRIIb (human, UniProt P31994 43-217, limits assumed)
T3 construct: also called FcgRIIb; FcγIIB
T3 sequence: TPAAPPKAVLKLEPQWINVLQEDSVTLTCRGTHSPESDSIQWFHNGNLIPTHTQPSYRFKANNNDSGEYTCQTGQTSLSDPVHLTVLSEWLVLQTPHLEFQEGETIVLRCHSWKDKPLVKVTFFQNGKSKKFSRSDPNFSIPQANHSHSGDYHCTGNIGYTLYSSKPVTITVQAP


What was measured:
Assay in all cases: SPR (Biacore), antibody captured, FcγR as analyte; amount bound / that of GpH7-B3/GpL16-k0 x 100;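 note: FcγR binding response divided by the captured antibody amount before comparison, measured at 25 °C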
human FcγRIa = target: T4, human FcγRIa (human, UniProt P12314 16-292, limits assumed)
T4 construct: also called FcgRIa; CD64
Description: (§1) Interaction between each modified antibody and Fcγ receptor prepared in the manner described above was analyzed using the BIACORE™ T100 surface plasmon resonance system (GE Healthcare), BIACORE™ T200 surface plasmon resonance system (GE Healthcare), BIACORE™ A100 surface plasmon resonance system or BIACORE™ 4000 surface plasmon resonance system. HBS-EP+(GE Healthcare) was used for the running buffer, and measurements were carried out at 25° C. The chips used were chips in which antigen peptides, Protein A (Thermo Scientific), Protein A/G (Thermo Scientific) or Protein L (ACTIGEN® protein (Alltech or BioVision) were immobilized on the Series S Sensor Chip CM5 (GE Healthcare) or Series S Sensor Chip CM4 (GE Healthcare) by amine coupling, or chips in which preliminarily biotinylated antigen peptides were allowed to interact and then immobilized on the Series S Sensor Chip SA (certified) (GE Healthcare). The target antibodies were captured on these sensor chips, Fcγ receptor diluted with the running buffer was allowed to interact, followed by measurement of the amount of bound antibody. The amounts bound were compared between antibodies. However, since the amount of Fcγ receptor bound depends on the amount of captured antibody, the values used for comparison were first corrected by dividing the amount of Fcγ receptor bound by the captured amount of each antibody. Through reaction with 10 mM glycine-HCl at pH 1.5, the sensor chips were regenerated by washing off antibody captured on the sensor chips and used repeatedly.
(§2) Binding strength was evaluated according to the following method based on the results of analyzing the interaction with each FcγR. […] That value was then further multiplied by 100, and the resulting value was used as an indicator of relative binding activity to each FcγR.

human FcγRIIa(R) = target: T1, human FcγRIIa(R)
Description: as §1, §2

human FcγRIIa(H) = target: T2, human FcγRIIa(H)
Description: as §1, §2

human FcγRIIb = target: T3, human FcγRIIb
Description: as §1, §2

human FcγRIIIa(F) = target: T5, human FcγRIIIa(F) (human, UniProt P08637 17-208, limits assumed)
T5 construct: also called FcgRIIIaF; FcγRIIIa allotype F158
T5 sequence (P08637 other isoform, or with tags, fused parts or gaps limits assumed): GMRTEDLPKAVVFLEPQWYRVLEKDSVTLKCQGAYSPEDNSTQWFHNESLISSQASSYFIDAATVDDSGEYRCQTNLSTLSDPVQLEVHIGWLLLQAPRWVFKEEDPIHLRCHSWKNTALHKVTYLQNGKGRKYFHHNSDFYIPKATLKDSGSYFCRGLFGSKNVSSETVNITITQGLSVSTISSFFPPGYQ
Description: as §1, §2

T4 sequence (P12314 16-292 limits assumed): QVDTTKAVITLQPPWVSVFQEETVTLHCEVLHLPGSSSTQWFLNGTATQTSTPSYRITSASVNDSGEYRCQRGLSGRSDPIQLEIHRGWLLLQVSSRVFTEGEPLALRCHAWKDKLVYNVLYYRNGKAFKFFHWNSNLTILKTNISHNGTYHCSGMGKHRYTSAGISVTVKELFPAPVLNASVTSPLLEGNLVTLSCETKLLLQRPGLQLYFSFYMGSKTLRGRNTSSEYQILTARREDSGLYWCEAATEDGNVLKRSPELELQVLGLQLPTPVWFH

| relative binding activity (human FcγRIa) | relative binding activity (human FcγRIIa(R)) | relative binding activity (human FcγRIIa(H)) | relative binding activity (human FcγRIIb) | relative binding activity (human FcγRIIIa(F)) | Binder |
| --- | --- | --- | --- | --- | --- |
| 45 GpH7-B3/GpL16-k0 = 100 | 10 GpH7-B3/GpL16-k0 = 100 | 8 GpH7-B3/GpL16-k0 = 100 | 7 GpH7-B3/GpL16-k0 = 100 | – | GpH7-B3/GpL16-k0 variant Y296P (antibody, human IgG1, also called B3 variant; copies: 2 + 2) heavy: not shown light: DIVMTQSPLSLPVTPGEPASISCQASESLVHSNRNTYLHWYLQKPGQSPQLLIYKVSNRFSGVPDRFSGSGSGTDFTLKISRVEAEDVGVYYCSQNTHVPPTFGQGTKVEIE |
| 45 GpH7-B3/GpL16-k0 = 100 | -5 GpH7-B3/GpL16-k0 = 100 | 11 GpH7-B3/GpL16-k0 = 100 | -5 GpH7-B3/GpL16-k0 = 100 | 2 GpH7-B3/GpL16-k0 = 100 | GpH7-B3/GpL16-k0 variant D270R (antibody, human IgG1, also called B3 variant; copies: 2 + 2) heavy: not shown light: DIVMTQSPLSLPVTPGEPASISCQASESLVHSNRNTYLHWYLQKPGQSPQLLIYKVSNRFSGVPDRFSGSGSGTDFTLKISRVEAEDVGVYYCSQNTHVPPTFGQGTKVEIE |
| 84 GpH7-B3/GpL16-k0 = 100 | 1 GpH7-B3/GpL16-k0 = 100 | 37 GpH7-B3/GpL16-k0 = 100 | 3 GpH7-B3/GpL16-k0 = 100 | 19 GpH7-B3/GpL16-k0 = 100 | GpH7-B3/GpL16-k0 variant D270V (antibody, human IgG1, also called B3 variant; copies: 2 + 2) heavy: not shown light: DIVMTQSPLSLPVTPGEPASISCQASESLVHSNRNTYLHWYLQKPGQSPQLLIYKVSNRFSGVPDRFSGSGSGTDFTLKISRVEAEDVGVYYCSQNTHVPPTFGQGTKVEIE |
| 99 GpH7-B3/GpL16-k0 = 100 | 49 GpH7-B3/GpL16-k0 = 100 | 55 GpH7-B3/GpL16-k0 = 100 | 38 GpH7-B3/GpL16-k0 = 100 | 39 GpH7-B3/GpL16-k0 = 100 | GpH7-B3/GpL16-k0 variant P271F (antibody, human IgG1, also called B3 variant; copies: 2 + 2) heavy: not shown light: DIVMTQSPLSLPVTPGEPASISCQASESLVHSNRNTYLHWYLQKPGQSPQLLIYKVSNRFSGVPDRFSGSGSGTDFTLKISRVEAEDVGVYYCSQNTHVPPTFGQGTKVEIE |

The next lines start with the binder.

| Binder | relative binding activity (human FcγRIa) | relative binding activity (human FcγRIIa(R)) | relative binding activity (human FcγRIIa(H)) | relative binding activity (human FcγRIIb) | relative binding activity (human FcγRIIIa(F)) |
| --- | --- | --- | --- | --- | --- |
| GpH7-B3/GpL16-k0 variant D270P (antibody, human IgG1, also called B3 variant; copies: 2 + 2) heavy: not shown light: DIVMTQSPLSLPVTPGEPASISCQASESLVHSNRNTYLHWYLQKPGQSPQLLIYKVSNRFSGVPDRFSGSGSGTDFTLKISRVEAEDVGVYYCSQNTHVPPTFGQGTKVEIE | 64 GpH7-B3/GpL16-k0 = 100 | -3 GpH7-B3/GpL16-k0 = 100 | 0 GpH7-B3/GpL16-k0 = 100 | 1 GpH7-B3/GpL16-k0 = 100 | -1 GpH7-B3/GpL16-k0 = 100 |
| GpH7-B3/GpL16-k0 variant D270F (antibody, human IgG1, also called B3 variant; copies: 2 + 2) heavy: not shown light: DIVMTQSPLSLPVTPGEPASISCQASESLVHSNRNTYLHWYLQKPGQSPQLLIYKVSNRFSGVPDRFSGSGSGTDFTLKISRVEAEDVGVYYCSQNTHVPPTFGQGTKVEIE | 88 GpH7-B3/GpL16-k0 = 100 | 5 GpH7-B3/GpL16-k0 = 100 | 62 GpH7-B3/GpL16-k0 = 100 | 5 GpH7-B3/GpL16-k0 = 100 | 12 GpH7-B3/GpL16-k0 = 100 |
| GpH7-B3/GpL16-k0 variant D270G (antibody, human IgG1, also called B3 variant; copies: 2 + 2) heavy: not shown light: DIVMTQSPLSLPVTPGEPASISCQASESLVHSNRNTYLHWYLQKPGQSPQLLIYKVSNRFSGVPDRFSGSGSGTDFTLKISRVEAEDVGVYYCSQNTHVPPTFGQGTKVEIE | 82 GpH7-B3/GpL16-k0 = 100 | 3 GpH7-B3/GpL16-k0 = 100 | 29 GpH7-B3/GpL16-k0 = 100 | 3 GpH7-B3/GpL16-k0 = 100 | 6 GpH7-B3/GpL16-k0 = 100 |
| GpH7-B3/GpL16-k0 variant D270I (antibody, human IgG1, also called B3 variant; copies: 2 + 2) heavy: not shown light: DIVMTQSPLSLPVTPGEPASISCQASESLVHSNRNTYLHWYLQKPGQSPQLLIYKVSNRFSGVPDRFSGSGSGTDFTLKISRVEAEDVGVYYCSQNTHVPPTFGQGTKVEIE | 88 GpH7-B3/GpL16-k0 = 100 | 3 GpH7-B3/GpL16-k0 = 100 | 43 GpH7-B3/GpL16-k0 = 100 | 1 GpH7-B3/GpL16-k0 = 100 | 23 GpH7-B3/GpL16-k0 = 100 |
| GpH7-B3/GpL16-k0 variant D270Q (antibody, human IgG1, also called B3 variant; copies: 2 + 2) heavy: not shown light: DIVMTQSPLSLPVTPGEPASISCQASESLVHSNRNTYLHWYLQKPGQSPQLLIYKVSNRFSGVPDRFSGSGSGTDFTLKISRVEAEDVGVYYCSQNTHVPPTFGQGTKVEIE | 82 GpH7-B3/GpL16-k0 = 100 | 2 GpH7-B3/GpL16-k0 = 100 | 78 GpH7-B3/GpL16-k0 = 100 | 0 GpH7-B3/GpL16-k0 = 100 | 49 GpH7-B3/GpL16-k0 = 100 |
| GpH7-B3/GpL16-k0 variant D270N (antibody, human IgG1, also called B3 variant; copies: 2 + 2) heavy: not shown light: DIVMTQSPLSLPVTPGEPASISCQASESLVHSNRNTYLHWYLQKPGQSPQLLIYKVSNRFSGVPDRFSGSGSGTDFTLKISRVEAEDVGVYYCSQNTHVPPTFGQGTKVEIE | 68 GpH7-B3/GpL16-k0 = 100 | -1 GpH7-B3/GpL16-k0 = 100 | 34 GpH7-B3/GpL16-k0 = 100 | -2 GpH7-B3/GpL16-k0 = 100 | 13 GpH7-B3/GpL16-k0 = 100 |
